Assay results taken from patent publication US20250171534A1 (D2M BIOTHERAPEUTICS, published 2025).

Key:
[1] = biological target: T1, LILRB1-ECD-HIS (SinoBiological Cat #: 16014-H02H) (human, UniProt Q8NHL6 24-461); assay: BLI epitope binning (Gator), monomeric antigen
T1 construct: Bought protein; also called monomeric antigen LILRB1-ECD-HIS; not shown: His tag

[2] = biological target: T1, LILRB1-ECD-HIS (SinoBiological Cat #: …); assay: BLI (Gator), RB1-ECD-his
[3] = biological target: T2, LILRB2-ECD-HIS (SinoBiological Cat #: 14132-H02H) (human, UniProt Q8N423 22-460); assay: BLI (Gator), RB2-ECD-his
T2 construct: Bought protein; also called monomeric antigen LILRB2-ECD-HIS; not shown: His tag
T2 sequence (Q8N423 other isoform, or with tags, fused parts or gaps H02H H02H): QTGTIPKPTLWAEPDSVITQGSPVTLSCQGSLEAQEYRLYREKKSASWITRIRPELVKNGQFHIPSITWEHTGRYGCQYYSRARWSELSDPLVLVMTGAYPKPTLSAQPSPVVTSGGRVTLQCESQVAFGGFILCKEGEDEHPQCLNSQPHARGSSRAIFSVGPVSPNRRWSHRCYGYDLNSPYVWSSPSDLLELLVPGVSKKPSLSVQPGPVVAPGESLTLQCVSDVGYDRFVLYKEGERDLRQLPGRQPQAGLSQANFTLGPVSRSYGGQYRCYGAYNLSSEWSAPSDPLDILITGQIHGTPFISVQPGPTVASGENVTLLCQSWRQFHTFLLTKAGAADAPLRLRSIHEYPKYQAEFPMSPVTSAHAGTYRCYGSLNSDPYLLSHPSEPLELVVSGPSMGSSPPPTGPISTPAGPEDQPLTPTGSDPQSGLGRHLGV

[4] = biological target: T1, LILRB1-ECD-HIS (SinoBiological Cat #: …); assay: SPR (Carterra), LILRB1-ECD-his
[5] = biological target: T2, LILRB2-ECD-HIS (SinoBiological Cat #: …); assay: SPR (Carterra), LILRB2-ECD-his
[6] = biological target: T3, human LILRB1 expressed on cells (human, UniProt Q8NHL6 24-650); assay: flow cytometry, CHO-LILRB1 cells
T3 construct: In 293T cells it was expressed from pCMV3-LILRB1-GFP; also called CHO-LILRB1; Jurkat-LILRB1
T3 sequence (Q8NHL6 other isoform, or with tags, fused parts or gaps limits assumed): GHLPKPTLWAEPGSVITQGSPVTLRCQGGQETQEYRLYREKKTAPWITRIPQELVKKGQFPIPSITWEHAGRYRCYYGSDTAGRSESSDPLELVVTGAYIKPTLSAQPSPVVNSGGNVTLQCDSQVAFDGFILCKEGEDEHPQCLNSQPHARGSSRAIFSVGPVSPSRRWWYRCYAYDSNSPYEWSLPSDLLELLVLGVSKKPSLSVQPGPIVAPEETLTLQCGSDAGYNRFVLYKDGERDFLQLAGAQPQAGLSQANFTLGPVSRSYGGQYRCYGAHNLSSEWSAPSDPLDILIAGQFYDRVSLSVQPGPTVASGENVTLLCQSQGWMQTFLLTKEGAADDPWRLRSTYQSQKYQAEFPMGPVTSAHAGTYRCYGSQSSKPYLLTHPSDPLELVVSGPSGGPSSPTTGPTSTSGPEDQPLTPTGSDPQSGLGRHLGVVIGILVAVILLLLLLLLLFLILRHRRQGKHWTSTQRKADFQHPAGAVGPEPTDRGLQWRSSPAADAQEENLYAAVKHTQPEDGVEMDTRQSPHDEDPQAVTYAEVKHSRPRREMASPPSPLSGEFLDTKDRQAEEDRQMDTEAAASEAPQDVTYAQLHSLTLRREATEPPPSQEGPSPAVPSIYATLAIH

[7] = biological target: T3, human LILRB1 expressed on cells; assay: flow cytometry, CHO-LILRB1 cells; remark: listed apart in the source
[8] = biological target: T4, human LILRB2 expressed on cells (human, UniProt Q8N423 22-597); assay: flow cytometry, CHO-LILRB2 cells
T4 construct: In 293T cells it was expressed from pCMV3-LILRB2-GFP; also called CHO-LILRB2; Jurkat-LILRB2
T4 sequence (Q8N423 other isoform, or with tags, fused parts or gaps limits assumed): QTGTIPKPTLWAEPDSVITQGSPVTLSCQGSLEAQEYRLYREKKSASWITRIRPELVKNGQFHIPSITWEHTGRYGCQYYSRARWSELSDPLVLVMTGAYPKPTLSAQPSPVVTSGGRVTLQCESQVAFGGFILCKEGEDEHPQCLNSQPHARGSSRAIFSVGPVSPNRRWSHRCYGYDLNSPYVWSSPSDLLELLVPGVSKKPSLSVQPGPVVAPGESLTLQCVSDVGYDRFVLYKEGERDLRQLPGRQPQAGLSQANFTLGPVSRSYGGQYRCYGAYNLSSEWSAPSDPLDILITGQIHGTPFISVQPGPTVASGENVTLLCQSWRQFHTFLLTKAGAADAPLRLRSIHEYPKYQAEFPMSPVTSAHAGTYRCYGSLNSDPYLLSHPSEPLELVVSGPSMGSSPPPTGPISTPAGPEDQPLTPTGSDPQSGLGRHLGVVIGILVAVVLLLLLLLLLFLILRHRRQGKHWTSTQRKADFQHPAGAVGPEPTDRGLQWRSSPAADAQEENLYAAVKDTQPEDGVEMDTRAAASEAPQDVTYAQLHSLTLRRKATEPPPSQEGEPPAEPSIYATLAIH

[9] = biological target: T3, human LILRB1 expressed on cells; assay: flow cytometry, Jurkat-LILRB1 cells
[10] = biological target: T4, human LILRB2 expressed on cells; assay: flow cytometry, Jurkat-LILRB2 cells
[11] = biological target: T1, LILRB1-ECD-HIS (SinoBiological Cat #: …); assay: SPR (Carterra LSA), antibody captured, antigen injected;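 also: kd obtained from kinetic analysis of antibody binding to the antigen, with association and dissociation phases fitted in the instrument software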
[12] = biological target: T2, LILRB2-ECD-HIS (SinoBiological Cat #: …); assay: as above
[13] = biological target: T5, LILRA1 expressed on cells (human, UniProt O75019 17-489); assay: flow cytometry on CHO-LILRA1 cells, non-linear fit of the curves of FIG. 26E
T5 construct: whole, on cells; GFP-tagged; also called human LILRA1; CHO-LILRA1
T5 sequence (O75019 17-489): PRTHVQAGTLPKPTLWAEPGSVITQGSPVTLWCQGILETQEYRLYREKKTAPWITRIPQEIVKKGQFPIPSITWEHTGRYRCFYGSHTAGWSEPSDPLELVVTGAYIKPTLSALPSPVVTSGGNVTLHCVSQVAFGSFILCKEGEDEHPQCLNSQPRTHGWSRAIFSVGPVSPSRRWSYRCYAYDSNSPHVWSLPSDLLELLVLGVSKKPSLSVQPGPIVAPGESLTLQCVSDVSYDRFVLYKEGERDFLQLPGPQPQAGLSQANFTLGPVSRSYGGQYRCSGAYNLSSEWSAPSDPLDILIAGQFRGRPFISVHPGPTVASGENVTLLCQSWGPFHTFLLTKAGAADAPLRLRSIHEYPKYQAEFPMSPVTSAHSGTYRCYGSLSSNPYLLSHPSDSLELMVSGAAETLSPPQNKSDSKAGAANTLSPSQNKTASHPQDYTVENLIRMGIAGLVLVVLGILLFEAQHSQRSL

[14] = biological target: T3, human LILRB1 expressed on cells; assay: flow cytometry on CHO-LILRB1 cells, non-linear fit of the curves of FIG. 26A
[15] = biological target: T4, human LILRB2 expressed on cells; assay: flow cytometry on CHO-LILRB2 cells, non-linear fit of the curves of FIG. 26B
[16] = biological target: T3, human LILRB1 expressed on cells; assay: flow cytometry, CHO-LILRB1 cells; blocked ligand: APC HLA-G trimer tetramer
[17] = biological target: T3, human LILRB1 expressed on cells; assay: flow cytometry, Jurkat-LILRB1 cells; blocked ligand: APC HLA-G trimer tetramer
[18] = biological target: T4, human LILRB2 expressed on cells; assay: flow cytometry, Jurkat-LILRB2 cells; blocked ligand: APC HLA-G monomer tetramer
[19] = biological target: T3, human LILRB1 expressed on cells; assay: flow cytometry on CHO-LILRB1 cells (CHO-RB1), titrated antibody, labelled anti-human Fc, gMFI
[20] = biological target: T4, human LILRB2 expressed on cells; assay: flow cytometry on CHO-LILRB2 cells (CHO-RB2), titrated antibody, labelled anti-human Fc, gMFI
[21] = biological target: T5, LILRA1 expressed on cells; assay: flow cytometry on CHO-LILRA1 cells (CHO-RA1), titrated antibody, labelled anti-human Fc, gMFI
[22] = biological target: T6, LILRB3 expressed on cells (human, UniProt O75022 24-631); assay: flow cytometry on 293T cells transiently expressing LILRB3, APC anti-human Fc; gMFI as fold to IgG staining
T6 construct: whole, on cells; Expressed with a GFP tag from the bought plasmid; also called human LILRB3; CHO-LILRB3

[23] = biological target: T7, LILRB4 expressed on 293T cells (UniProt Q8NHJ6 22-448, limits assumed); assay: flow cytometry on 293T cells transiently expressing LILRB4, APC anti-human Fc; gMFI as fold to IgG staining
T7 construct: whole, on cells; GFP-tagged, transient

[24] = biological target: T8, LILRB5 expressed on 293T cells (UniProt O75023 24-590, limits assumed); assay: flow cytometry on 293T cells transiently expressing LILRB5, APC anti-human Fc; gMFI as fold to IgG staining
T8 construct: whole, on cells; GFP-tagged, transient
T8 sequence (O75023 24-590 limits assumed): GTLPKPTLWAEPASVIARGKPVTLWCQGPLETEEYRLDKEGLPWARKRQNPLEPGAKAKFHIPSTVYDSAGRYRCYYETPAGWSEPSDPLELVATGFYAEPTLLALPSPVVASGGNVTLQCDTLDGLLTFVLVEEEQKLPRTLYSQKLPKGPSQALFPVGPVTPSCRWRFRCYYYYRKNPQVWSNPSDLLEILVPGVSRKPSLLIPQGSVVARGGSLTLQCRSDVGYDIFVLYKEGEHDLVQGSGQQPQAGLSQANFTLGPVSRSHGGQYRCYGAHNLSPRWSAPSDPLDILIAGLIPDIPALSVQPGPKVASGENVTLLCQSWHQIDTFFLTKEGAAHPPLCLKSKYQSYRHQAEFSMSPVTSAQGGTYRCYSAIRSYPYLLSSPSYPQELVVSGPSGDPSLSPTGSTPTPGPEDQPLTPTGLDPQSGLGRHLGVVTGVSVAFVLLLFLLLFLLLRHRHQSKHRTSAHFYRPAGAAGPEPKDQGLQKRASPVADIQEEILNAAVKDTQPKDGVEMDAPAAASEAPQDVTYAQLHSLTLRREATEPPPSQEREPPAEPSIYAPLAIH

[25] = biological target: T9, LILRA2 expressed on 293T cells (UniProt Q8N149 24-483, limits assumed); assay: flow cytometry on 293T cells transiently expressing LILRA2, APC anti-human Fc; gMFI as fold to IgG staining
T9 construct: whole, on cells; GFP-tagged, transient
T9 sequence (Q8N149 24-483 limits assumed): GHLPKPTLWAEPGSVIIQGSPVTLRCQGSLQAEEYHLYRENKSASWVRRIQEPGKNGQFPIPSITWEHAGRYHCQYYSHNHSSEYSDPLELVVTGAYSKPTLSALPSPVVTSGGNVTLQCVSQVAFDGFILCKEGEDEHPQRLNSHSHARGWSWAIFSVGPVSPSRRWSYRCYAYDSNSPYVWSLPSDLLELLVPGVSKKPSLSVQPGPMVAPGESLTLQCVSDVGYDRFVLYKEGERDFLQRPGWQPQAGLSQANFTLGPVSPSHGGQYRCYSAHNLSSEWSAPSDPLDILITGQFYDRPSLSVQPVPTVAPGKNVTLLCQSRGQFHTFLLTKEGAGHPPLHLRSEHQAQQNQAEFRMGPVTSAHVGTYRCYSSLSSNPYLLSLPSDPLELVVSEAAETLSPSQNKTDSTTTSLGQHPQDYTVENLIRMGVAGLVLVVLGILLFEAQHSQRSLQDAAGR

[26] = biological target: T10, LILRA3 expressed on 293T cells (UniProt Q8N6C8 24-439, limits assumed); assay: flow cytometry on 293T cells transiently expressing LILRA3, APC anti-human Fc; gMFI as fold to IgG staining
T10 construct: whole, on cells; GFP-tagged, transient
T10 sequence (Q8N6C8 24-439 limits assumed): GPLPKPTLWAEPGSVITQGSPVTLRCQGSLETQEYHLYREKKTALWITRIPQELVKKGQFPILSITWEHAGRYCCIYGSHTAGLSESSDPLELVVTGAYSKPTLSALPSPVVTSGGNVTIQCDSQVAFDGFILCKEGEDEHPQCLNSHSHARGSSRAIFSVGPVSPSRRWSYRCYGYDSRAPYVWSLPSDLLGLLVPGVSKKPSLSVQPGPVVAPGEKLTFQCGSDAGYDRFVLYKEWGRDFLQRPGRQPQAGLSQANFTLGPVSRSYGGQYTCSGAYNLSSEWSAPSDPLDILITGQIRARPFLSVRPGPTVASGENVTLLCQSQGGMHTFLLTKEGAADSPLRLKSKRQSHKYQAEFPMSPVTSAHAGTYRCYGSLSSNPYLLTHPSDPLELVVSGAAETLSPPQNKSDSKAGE

[27] = biological target: T11, LILRA4 expressed on 293T cells (UniProt P59901 24-499, limits assumed); assay: flow cytometry on 293T cells transiently expressing LILRA4, APC anti-human Fc; gMFI as fold to IgG staining
T11 construct: whole, on cells; GFP-tagged, transient

[28] = biological target: T12, LILRA6 expressed on cells (human, UniProt Q6PI73 24-481); assay: flow cytometry on 293T cells transiently expressing LILRA6, APC anti-human Fc; gMFI as fold to IgG staining
T12 construct: whole, on cells; GFP-tagged; also called human LILRA6; CHO-LILRA6

[29] = biological target: T13, LILRA5 expressed on 293T cells (UniProt A6NI73 42-299, limits assumed); assay: flow cytometry on 293T cells transiently expressing LILRA5, antibody 5 µg/mL, APC anti-human Fc; gMFI as fold to IgG staining
T13 construct: whole, on cells; GFP-tagged, transient
T13 sequence (A6NI73 42-299 limits assumed): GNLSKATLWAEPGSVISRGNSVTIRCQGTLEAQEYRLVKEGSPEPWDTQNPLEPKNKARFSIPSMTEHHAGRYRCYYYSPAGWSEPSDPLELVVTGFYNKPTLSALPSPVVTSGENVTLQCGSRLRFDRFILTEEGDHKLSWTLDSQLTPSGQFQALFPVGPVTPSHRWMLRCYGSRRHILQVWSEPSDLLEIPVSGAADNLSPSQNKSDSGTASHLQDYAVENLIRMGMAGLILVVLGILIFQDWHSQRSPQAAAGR

[30] = biological target: T3, human LILRB1 expressed on cells; assay: flow cytometry, CHO-LILRB1 cells; remark: listed apart in the source
[31] = biological target: T2, LILRB2-ECD-HIS (SinoBiological Cat #: …); assay: BLI epitope binning (Gator), monomeric antigen

T1 sequence (Q8NHL6 other isoform, or with tags, fused parts or gaps H02H H02H): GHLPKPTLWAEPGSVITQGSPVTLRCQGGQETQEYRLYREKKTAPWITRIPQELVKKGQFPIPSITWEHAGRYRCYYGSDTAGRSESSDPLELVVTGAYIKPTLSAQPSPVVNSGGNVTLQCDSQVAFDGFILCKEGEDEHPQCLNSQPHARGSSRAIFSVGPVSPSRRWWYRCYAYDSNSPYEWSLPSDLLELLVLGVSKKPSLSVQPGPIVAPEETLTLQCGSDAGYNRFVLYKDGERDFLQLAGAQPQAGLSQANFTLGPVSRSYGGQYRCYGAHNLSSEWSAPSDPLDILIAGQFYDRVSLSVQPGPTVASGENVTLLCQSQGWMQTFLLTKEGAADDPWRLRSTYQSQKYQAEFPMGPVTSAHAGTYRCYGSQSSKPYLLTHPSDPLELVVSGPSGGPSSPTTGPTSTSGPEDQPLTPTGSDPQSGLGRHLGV

B1: Anti-LILRB1 antibody 15G8 (antibody, human IgG4 S228P, kappa)
heavy: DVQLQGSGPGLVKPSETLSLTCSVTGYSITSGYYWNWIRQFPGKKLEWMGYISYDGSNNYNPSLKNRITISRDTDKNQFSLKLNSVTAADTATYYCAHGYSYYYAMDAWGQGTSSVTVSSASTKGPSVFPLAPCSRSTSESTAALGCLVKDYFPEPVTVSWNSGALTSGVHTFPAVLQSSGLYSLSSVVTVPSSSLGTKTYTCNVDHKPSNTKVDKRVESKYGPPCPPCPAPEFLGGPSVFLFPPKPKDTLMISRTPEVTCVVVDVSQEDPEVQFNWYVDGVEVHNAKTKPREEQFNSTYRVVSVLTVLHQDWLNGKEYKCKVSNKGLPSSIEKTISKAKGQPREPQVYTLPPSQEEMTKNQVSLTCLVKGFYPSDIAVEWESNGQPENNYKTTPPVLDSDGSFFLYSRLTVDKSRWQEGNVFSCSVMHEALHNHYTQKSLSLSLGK
light: DIQMTQSPSSLSASVGDRVTITCRTSQDISNYLNWYQQKPGKAVKLLISYTSRLHSGVPSRFSGSGSGTDYTLTISSLQPEDFATYYCQQGNTLPTFGQGTKLEIKRTVAAPSVFIFPPSDEQLKSGTASVVCLLNNFYPREAKVQWKVDNALQSGNSQESVTEQDSKDSTYSLSSTLTLSKADYEKHKVYACEVTHQGLSSPVTKSFNRGEC
notes: also called BND-22
B1: binds [1].

B2: D2M002-026 (antibody, V domains shown)
VH: QVQLQQPGAELMKPGASVKISCKATGYTFSSYWIEWVKQRPGHGLEWIGEILPGDGSTNYNAKFKGQATFTADTSSNTAYMQFSSLTSEDSAVYYCARSGAGGYDSGAFAYWGQGTLVTVSS
VL: DIVLTQSPASLAVSLGQRATISCRASESVDTYGNSFMHWYQQKPGQPPKLLVYRTSNLESGIPARFSGSGSGTDFTLTINPVEADDVATYYCQQSNEDPWTFGGGTKLEIK
notes: Hit; also called clone #26
B2 was tested, and the Kd [2] was 689 pM, the Kd [3] was 103 pM and the Kd [4] was 382 pM. For the same binder, the koff [4] was 2.79e-05 s⁻¹, the kon [4] was 73100 M⁻¹ s⁻¹ and the Kd [5] was 60.8 pM. It also gave a koff [5] of 4.53e-05 s⁻¹, a kon [5] of 745000 M⁻¹ s⁻¹ and an EC50 [6] of 1.02 µg/mL. The EC50 [7] was 0.818 µg/mL, the “gMFI (max)” value [7] was 43200 and the EC50 [8] was 2.63 µg/mL. For the same binder, the “gMFI (max)” value [8] was 35500, the EC50 [9] was 1.94 µg/mL and the EC50 [10] was 0.106 µg/mL. For the same binder, the Kd [11] was 737 pM, the Kd [12] was 28.6 pM and the EC50 [13] was 0.0877 µg/mL. The MaxMFI [13] was 28100, the EC50 [14] was 0.4 µg/mL and the MaxMFI [14] was 113000. The EC50 [15] was 0.18 µg/mL, the MaxMFI [15] was 31800 and the IC50 [16] was 0.197 µg/mL. The IC50 [17] was 0.34 µg/mL, the IC50 [18] was 0.023 µg/mL and the “EC50 (read off the curve)” value [19] was ~0.4 µg/mL. The “EC50 (read off the curve)” value [20] was ~0.2 µg/mL, the “EC50 (read off the curve)” value [21] was ~0.09 µg/mL and the binding result [22] was “no binding (tested: 5 µg/mL)”. B2: no binding (tested: 5 µg/mL) [23]; no binding (tested: 5 µg/mL) [24]; no binding (tested: 5 µg/mL) [25]. B2: no binding (tested: 5 µg/mL) [26]; no binding (tested: 5 µg/mL) [27]; no binding (tested: 5 µg/mL) [28]. B2: binds [29].

B3: #1 (antibody, human IgG1, V domains shown)
VH: EVQLQQSGPELVKPGASVKMSCKASGYTFTRYVMHWVKQKPGQGLEWIGYINPNNDGTKYNEKFKGKVTLTSDKSSSTAYMELSSLTSEDSAVYYCARGDLEILPYYDHARNAMDYWGQGTSVTVSS
VL: DIVMTQSPASQSASLGESVIITCRASGNIHNYLAWYQQKQGKSPQLLVYNAKTLADGVPSRFSGSGSGTQYSLKINSLQPEDFGTYYCQHFWSSPPTFGGGTKLELK
notes: also called D2M002-001
With B3 the “EC50 (read off the curve)” value [30] was ~0.09 µg/mL, the EC50 [7] was 0.093 µg/mL and the “gMFI (max)” value [7] was 26800. For the same binder, the EC50 [8] was 0.033 µg/mL, the “gMFI (max)” value [8] was 16300 and the Kd [11] was 14700 pM. It also gave a Kd [12] of 2080 pM.

B4: Anti-LILRB1/2 antibody Hz73D1.v1 (antibody, human IgG1, kappa, N297G, V domains shown)
VH: QVQLVQSGAEVKKPGASVKVSCKASGYTFTDYYINWVRQAPGQGLEWMGNVNPNDGGTTYNQKFKGRVTMTTDTSTSTAYMELRSLRSDDTAVYYCARREIYFYGTIYYYAMDYWGQGTLVTVSS
VL: DIQLTQSPSFLSASVGDRVTITCRASESVDYYGNSFMYWYQQKPGKAPKLLIYFASNLESGVPSRFSGSGSGTEFTLTISSLQPEDFATYYCQQNNEDPWTFGGGTKVEIKR
notes: also called NGM707
B4: binds [1]; binds [31].

B5: Anti-LILRB2 antibody J-19.H1 (antibody, human IgG4 S228P, kappa, V domains shown)
VH: QVTLKESGPGILQPSHTLSLTCSFSGFSLNTYAMGVSWIRQPSGKGLEWLASIWWNGNKYNNPSLKSRLTVSKDTSNNQAFLKVTSVDTADTATYYCAHSRIIRFTDYVMDAWGQGASVTVSS
VL: DIQMTQSPASLSTFLGEPVTIECRASEDIYNDLAWYQQKPGKSPQLLIYNANSLHTGVPSRFSGSGSGTQYSLKINSLQSEDVASYFCQQYYDYPLTFGSGTKLEIKR
notes: also called JTX-8064
B5: binds [31].
